Results taken from the Human Domainome abundance scans (Beltran et al. 2025).

B1: Ankyrin-2, residues 3571 to 3650; numbered along this chain, Q01484 (parent)
chain: ERLAYIADHLGFSWTELARELDFTEEQIHQIRIENPNSLQDQSHALLKYWLERDGKHATDTNLVECLTKINRMDIVHLME

Variants of: B1
Test: abundance fitness (aPCA) (normalised: wild type 0, dead -1); higher = more abundant; growth selection in yeast, the domain comes from the species named
Conditions: Homo sapiens

Abundance fitness, by site and new letter:
P36: H -0.202; C -0.123; R -0.076; Y -0.221; V -0.14; S -0.117; W -0.074; K -0.125; G -0.045; E -0.044; M -0.017; N 0.253; D -0.031; L -0.081; F -0.08; Q -0.123; T -0.052; I -0.805
H29: Q -0.025; Y -0.294; P -0.961; L -0.006; R -0.111; M -0.133; T -0.005; V 0.035; W -0.137; N -0.108; S -0.041
E34: T -0.049; V -0.021; G -0.058; K -0.045; P -0.678; W -0.022; D -0.129; S -0.018; N -0.048; R 0.018; H -0.048; A -0.048; F -0.25; Y -0.148; Q 0.085; L -0.054; I -0.042; C -0.413
N35: H -0.118; I -0.087; Q 0.066; W -0.049; E -0.043; R -0.033; S -0.093; A -0.066; K -0.042; C -0.053; L -0.128; T -0.071; Y -0.07; V -0.084; D -0.296; F -0.091; M -0.03
I33: M 0.011; Y -0.027; G -0.047; F -0.019; Q 0.003; R 0.011; W -0.073; L -0.087; T -0.022; C -0.002; A -0.034; P -0.912; E 0.039; V -0.04; H -0.096; N -0.223; D -0.105; K 0.058
I31: C 0.027; R -1.04; Q -0.743; A -0.545; G -0.936; H -0.707; E -0.791; W -0.336; D -1; T -0.157; S -0.772; N -0.242; M -0.177; L -0.06; F 0.023; P -1.19; V -0.057; Y -0.42
N37: Y -0.171; R -0.068; I -0.01; G -0.028; Q -0.069; C -0.064; T -0.093; K -0.074; A 0.043; L -0.067; S -0.031; W -0.091; D -0.015; F -0.003; M 0.099; P -0.249; H -0.021
Q30: V -0.073; M 0.008; F -0.023; A -0.082; P -0.825; I -0.076; E 0.005; T -0.023; D -0.183; S -0.081; W -0.209; R 0; L -0.052; C -0.044; N -0.128; G -0.079; K -0.112; H -0.045
S38: V -0.092; M -0.059; T -0.039; H -0.14; Q -0.103; N -0.065; E -0.092; P -0.832; R -0.096; L -0.086; I -0.396; F -0.155; D -0.038; W -0.358
R32: Q 0.081; E 0.058; Y -0.384; M -0.065; N -0.206; S -0.059; T -0.127; A -0.096; G -0.05; I -0.339; L -0.034; H 0.034; C -0.074; P -0.293; D -0.073; K 0.177; F -0.088; W -0.25
